The numbers were not newly measured in article PMC4276913, which cites them from elsewhere.

For the series, the target named is Ubc13 (Homo sapiens) (UniProt P61088).
Chain of UniProt P61088 (P61088 whole entry): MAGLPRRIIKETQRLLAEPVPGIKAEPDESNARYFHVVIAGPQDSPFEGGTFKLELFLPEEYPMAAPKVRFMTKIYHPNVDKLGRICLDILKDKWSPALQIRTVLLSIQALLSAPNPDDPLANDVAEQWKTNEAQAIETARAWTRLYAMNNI

Turning to Mms2 (from UniProt Q15819), the Kd (as a rule, the constant that tells how readily two partners part at equilibrium) is 49 nM.
